T1: PUF4 RNA-binding domain (Saccharomyces cerevisiae, UniProt P25339 537-888)
T1 sequence: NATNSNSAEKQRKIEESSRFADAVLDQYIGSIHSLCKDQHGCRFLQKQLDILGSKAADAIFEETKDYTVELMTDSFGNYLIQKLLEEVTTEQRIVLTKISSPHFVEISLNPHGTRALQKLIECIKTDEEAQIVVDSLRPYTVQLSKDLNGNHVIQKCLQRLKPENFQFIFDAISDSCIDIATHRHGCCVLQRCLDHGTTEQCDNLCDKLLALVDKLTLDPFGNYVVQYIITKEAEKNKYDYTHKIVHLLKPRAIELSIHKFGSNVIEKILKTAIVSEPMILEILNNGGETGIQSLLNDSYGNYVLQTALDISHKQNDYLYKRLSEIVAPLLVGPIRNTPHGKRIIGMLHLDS


Target: T1, PUF4 RNA-binding domain
Assay: Mg; RNA-MaP; 20 mM Na-HEPES pH 7.4, 30 mM KOAc, 0.75 mM MgCl2, 0.1% Tween-20, 5% glycerol, 0.1 mg/mL BSA, 2 mM DTT; 25 C; 0.0125-409.6 nM protein
Settings: tags: N-His6-TEV cleaved; C-SNAP kept, Cy3B-labelled; label: tethered on chip by stalled RNA polymerase

Binder	Kd [nM]
Ie_S2_P5E.1_K5.1_C5.1_H5.1_[+2TCT]_A5.1_F5.1_T5.1 (ssRNA) RNA: UUUGAUUAAUAUGAUAUCGUUCUUUCUUGUCUUAUUAUUAUUCUUUCUCGAUAUCAUAUUAAUCUUU	11.1
Ie_S2_P5E.1_K5.1_C5.1_H5.1_[+2CTT]_A5.1_F5.1_T5.1 (ssRNA) RNA: UUUGAUUAAUAUGAUAUCGUUCUUUCUUGCUUUAUUAUUAUUCUUUCUCGAUAUCAUAUUAAUCUUU	368
Ie_S2_P5E.1_K5.1_C5.1_H5.1_[+3TTT]_A5.1_F5.1_T5.1 (ssRNA) RNA: UUUGAUUAAUAUGAUAUCGUUCUUUCUUGUUUUAUUAUUAUUCUUUCUCGAUAUCAUAUUAAUCUUU	11.3
Ib_S2_P3E.1_K3.1_C3.1_H3.1_[T1C]_[T3C]_A3.1_F3.1_T3.1 (ssRNA) RNA: UUUGAUUAAUAUGAUAUCGUUCUUUCUCGCAUAUAUUCUUUCUCGAUAUCAUAUUAAUCUUU	> 2300
Ie_S2_P5E.1_K5.1_C5.1_H5.1_[+2TCTC]_A5.1_F5.1_T5.1 (ssRNA) RNA: UUUGAUUAAUAUGAUAUCGUUCUUUCUUGUCUCUAUUAUUAUUCUUUCUCGAUAUCAUAUUAAUCUUU	34.8
Ie_S2_P5E.1_K5.1_C5.1_H5.1_[+2CCTC]_A5.1_F5.1_T5.1 (ssRNA) RNA: UUUGAUUAAUAUGAUAUCGUUCUUUCUUGCCUCUAUUAUUAUUCUUUCUCGAUAUCAUAUUAAUCUUU	1100
Ie_S2_P5E.1_K5.1_C5.1_H5.1_[+2TTCC]_A5.1_F5.1_T5.1 (ssRNA) RNA: UUUGAUUAAUAUGAUAUCGUUCUUUCUUGUUCCUAUUAUUAUUCUUUCUCGAUAUCAUAUUAAUCUUU	37.6
Ie_S2_P5E.1_K5.1_C5.1_H5.1_[+2CCCT]_A5.1_F5.1_T5.1 (ssRNA) RNA: UUUGAUUAAUAUGAUAUCGUUCUUUCUUGCCCUUAUUAUUAUUCUUUCUCGAUAUCAUAUUAAUCUUU	1170
Ie_S2_P5E.1_K5.1_C5.1_H5.1_[+2CTCTC]_A5.1_F5.1_T5.1 (ssRNA) RNA: UUUGAUUAAUAUGAUAUCGUUCUUUCUUGCUCUCUAUUAUUAUUCUUUCUCGAUAUCAUAUUAAUCUUU	724
Ie_S2_P5E.1_K5.1_C5.1_H5.1_[+2TCTCT]_A5.1_F5.1_T5.1 (ssRNA) RNA: UUUGAUUAAUAUGAUAUCGUUCUUUCUUGUCUCUUAUUAUUAUUCUUUCUCGAUAUCAUAUUAAUCUUU	39.3
Ie_S2_P5E.1_K5.1_C5.1_H5.1_[+2CCTCT]_A5.1_F5.1_T5.1 (ssRNA) RNA: UUUGAUUAAUAUGAUAUCGUUCUUUCUUGCCUCUUAUUAUUAUUCUUUCUCGAUAUCAUAUUAAUCUUU	> 2300
Ie_S2_P5E.1_K5.1_C5.1_H5.1_[+2TTCCT]_A5.1_F5.1_T5.1 (ssRNA) RNA: UUUGAUUAAUAUGAUAUCGUUCUUUCUUGUUCCUUAUUAUUAUUCUUUCUCGAUAUCAUAUUAAUCUUU	27.4
Ie_S2_P5E.1_K5.1_C5.1_H5.1_[+3CCC]_A5.1_F5.1_T5.1 (ssRNA) RNA: UUUGAUUAAUAUGAUAUCGUUCUUUCUUGUCCCAUUAUUAUUCUUUCUCGAUAUCAUAUUAAUCUUU	24.4
Ie_S2_P5E.1_K5.1_C5.1_H5.1_[+3CTC]_A5.1_F5.1_T5.1 (ssRNA) RNA: UUUGAUUAAUAUGAUAUCGUUCUUUCUUGUCUCAUUAUUAUUCUUUCUCGAUAUCAUAUUAAUCUUU	10.1
Ib_S2_P3E.1_K3.1_C3.1_H3.1_[T1G]_[A4G]_A3.1_F3.1_T3.1 (ssRNA) RNA: UUUGAUUAAUAUGAUAUCGUUCUUUCUGGUGUAUAUUCUUUCUCGAUAUCAUAUUAAUCUUU	10.7
Ie_S2_P5E.1_K5.1_C5.1_H5.1_[+3TCC]_A5.1_F5.1_T5.1 (ssRNA) RNA: UUUGAUUAAUAUGAUAUCGUUCUUUCUUGUUCCAUUAUUAUUCUUUCUCGAUAUCAUAUUAAUCUUU	11.4
Ie_S2_P5E.1_K5.1_C5.1_H5.1_[+3TTC]_A5.1_F5.1_T5.1 (ssRNA) RNA: UUUGAUUAAUAUGAUAUCGUUCUUUCUUGUUUCAUUAUUAUUCUUUCUCGAUAUCAUAUUAAUCUUU	7.67

Binder	Kd [nM]
Ie_S2_P5E.1_K5.1_C5.1_H5.1_[+3TCTC]_A5.1_F5.1_T5.1 (ssRNA) RNA: UUUGAUUAAUAUGAUAUCGUUCUUUCUUGUUCUCAUUAUUAUUCUUUCUCGAUAUCAUAUUAAUCUUU	56.2
Ie_S2_P5E.1_K5.1_C5.1_H5.1_[+3CCTC]_A5.1_F5.1_T5.1 (ssRNA) RNA: UUUGAUUAAUAUGAUAUCGUUCUUUCUUGUCCUCAUUAUUAUUCUUUCUCGAUAUCAUAUUAAUCUUU	127
Ie_S2_P5E.1_K5.1_C5.1_H5.1_[+3CCTCT]_A5.1_F5.1_T5.1 (ssRNA) RNA: UUUGAUUAAUAUGAUAUCGUUCUUUCUUGUCCUCUAUUAUUAUUCUUUCUCGAUAUCAUAUUAAUCUUU	35.3
Ie_S2_P5E.1_K5.1_C5.1_H5.1_[+3TTCCT]_A5.1_F5.1_T5.1 (ssRNA) RNA: UUUGAUUAAUAUGAUAUCGUUCUUUCUUGUUUCCUAUUAUUAUUCUUUCUCGAUAUCAUAUUAAUCUUU	46.3
Ie_S2_P5E.1_K5.1_C5.1_H5.1_[+3CCCTT]_A5.1_F5.1_T5.1 (ssRNA) RNA: UUUGAUUAAUAUGAUAUCGUUCUUUCUUGUCCCUUAUUAUUAUUCUUUCUCGAUAUCAUAUUAAUCUUU	54.6
Ie_S2_P5E.1_K5.1_C5.1_H5.1_[+4TCC]_A5.1_F5.1_T5.1 (ssRNA) RNA: UUUGAUUAAUAUGAUAUCGUUCUUUCUUGUAUCCUUAUUAUUCUUUCUCGAUAUCAUAUUAAUCUUU	2.6
Ie_S2_P5E.1_K5.1_C5.1_H5.1_[+4TTC]_A5.1_F5.1_T5.1 (ssRNA) RNA: UUUGAUUAAUAUGAUAUCGUUCUUUCUUGUAUUCUUAUUAUUCUUUCUCGAUAUCAUAUUAAUCUUU	2.96
Ie_S2_P5E.1_K5.1_C5.1_H5.1_[+4CTT]_A5.1_F5.1_T5.1 (ssRNA) RNA: UUUGAUUAAUAUGAUAUCGUUCUUUCUUGUACUUUUAUUAUUCUUUCUCGAUAUCAUAUUAAUCUUU	1.36
Ib_S2_P3E.1_K3.1_C3.1_H3.1_[T1G]_[A4C]_A3.1_F3.1_T3.1 (ssRNA) RNA: UUUGAUUAAUAUGAUAUCGUUCUUUCUGGUCUAUAUUCUUUCUCGAUAUCAUAUUAAUCUUU	> 2300
Ie_S2_P5E.1_K5.1_C5.1_H5.1_A5.1_[+5TTT]_F5.1_T5.1 (ssRNA) RNA: UUUGAUUAAUAUGAUAUCGUUCUUUCUUGUAUUUUUAUUAUUCUUUCUCGAUAUCAUAUUAAUCUUU	1.6
Ie_S2_P5E.1_K5.1_C5.1_H5.1_[+4CTCTC]_A5.1_F5.1_T5.1 (ssRNA) RNA: UUUGAUUAAUAUGAUAUCGUUCUUUCUUGUACUCUCUUAUUAUUCUUUCUCGAUAUCAUAUUAAUCUUU	7.93
Ie_S2_P5E.1_K5.1_C5.1_H5.1_[+4TCTCT]_A5.1_F5.1_T5.1 (ssRNA) RNA: UUUGAUUAAUAUGAUAUCGUUCUUUCUUGUAUCUCUUUAUUAUUCUUUCUCGAUAUCAUAUUAAUCUUU	10.5
Ie_S2_P5E.1_K5.1_C5.1_H5.1_[+4TTCCT]_A5.1_F5.1_T5.1 (ssRNA) RNA: UUUGAUUAAUAUGAUAUCGUUCUUUCUUGUAUUCCUUUAUUAUUCUUUCUCGAUAUCAUAUUAAUCUUU	18.1
Ie_S2_P5E.1_K5.1_C5.1_H5.1_[+4CCCTT]_A5.1_F5.1_T5.1 (ssRNA) RNA: UUUGAUUAAUAUGAUAUCGUUCUUUCUUGUACCCUUUUAUUAUUCUUUCUCGAUAUCAUAUUAAUCUUU	6.38
Ie_S2_P5E.1_K5.1_C5.1_H5.1_A5.1_[+6TCT]_F5.1_T5.1 (ssRNA) RNA: UUUGAUUAAUAUGAUAUCGUUCUUUCUUGUAUUUCUAUUAUUCUUUCUCGAUAUCAUAUUAAUCUUU	2.42
Ie_S2_P5E.1_K5.1_C5.1_H5.1_A5.1_[+5CTCTC]_F5.1_T5.1 (ssRNA) RNA: UUUGAUUAAUAUGAUAUCGUUCUUUCUUGUAUCUCUCUAUUAUUCUUUCUCGAUAUCAUAUUAAUCUUU	13.3
Ie_S2_P5E.1_K5.1_C5.1_H5.1_A5.1_[+5TCTCT]_F5.1_T5.1 (ssRNA) RNA: UUUGAUUAAUAUGAUAUCGUUCUUUCUUGUAUUCUCUUAUUAUUCUUUCUCGAUAUCAUAUUAAUCUUU	9.67
